First the molecules themselves.
B1: Autophagy-related protein 19 (Saccharomyces cerevisiae), P35193 (parent)
chain: MNNSKTNQQMNTSMGYPLTVYDECNKFQLIVPTLDANIMLWCIGQLSLLNDSNGCKHLFWQPNDKSNVRILLNNYDYGHLFKYLQCQRKCSVYIGEGTLKKYNLTISTSFDNFLDLTPSEEKESLCREDAHEDPVSPKAGSEEEISPNSTSNVVVSRECLDNFMKQLLKLEESLNKLELEQKVTNKEPNHRISGTIDIPEDRSELVNFFTELKTVKQLEDVFQRYHDYERLSQECDSKTEIASDHSKKETKIEVEPPNERSLQITMNQRDNSLYFQLFNNTNSVLAGNCKLKFTDAGDKPTTQIIDMGPHEIGIKEYKEYRYFPYALDLEAGSTIEIENQYGEVIFLGKYGSSPMINLRPPSRLSAESLQASQEPFYSFQIDTLPELDDSSIISTSISLSYDGDDNEKALTWEEL
partner: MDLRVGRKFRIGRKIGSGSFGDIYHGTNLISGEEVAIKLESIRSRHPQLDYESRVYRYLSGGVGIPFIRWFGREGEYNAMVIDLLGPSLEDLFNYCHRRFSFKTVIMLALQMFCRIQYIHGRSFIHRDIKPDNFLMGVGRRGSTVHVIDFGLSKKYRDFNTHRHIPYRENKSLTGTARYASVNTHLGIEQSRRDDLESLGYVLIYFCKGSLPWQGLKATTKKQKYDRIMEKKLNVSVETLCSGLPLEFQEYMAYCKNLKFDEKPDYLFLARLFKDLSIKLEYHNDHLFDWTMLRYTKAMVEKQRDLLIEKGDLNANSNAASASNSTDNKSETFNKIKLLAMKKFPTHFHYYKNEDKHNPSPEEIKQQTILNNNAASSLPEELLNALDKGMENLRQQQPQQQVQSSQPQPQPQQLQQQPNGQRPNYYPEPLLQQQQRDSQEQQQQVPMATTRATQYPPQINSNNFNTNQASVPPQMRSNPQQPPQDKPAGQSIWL
B2: Serine/threonine-protein kinase ATG1 (Saccharomyces cerevisiae), P53104 (parent)
chain: MGDIKNKDHTTSVNHNLMASAGNYTAEKEIGKGSFATVYRGHLTSDKSQHVAIKEVSRAKLKNKKLLENLEIEIAILKKIKHPHIVGLIDCERTSTDFYLIMEYCALGDLTFLLKRRKELMENHPLLRTVFEKYPPPSENHNGLHRAFVLSYLQQLASALKFLRSKNLVHRDIKPQNLLLSTPLIGYHDSKSFHELGFVGIYNLPILKIADFGFARFLPNTSLAETLCGSPLYMAPEILNYQKYNAKADLWSVGTVVFEMCCGTPPFRASNHLELFKKIKRANDVITFPSYCNIEPELKELICSLLTFDPAQRIGFEEFFANKVVNEDLSSYELEDDLPELESKSKGIVESNMFVSEYLSKQPKSPNSNLAGHQSMADNPAELSDALKNSNILTAPAVKTDHTQAVDKKASNNKYHNSLVSDRSFEREYVVVEKKSVEVNSLADEVAQAGFNPNPIKHPTSTQNQNVLLNEQFSPNNQQYFQNQGENPRLLRATSSSSGGSDGSRRPSLVDRRLSISSLNPSNALSRALGIASTRLFGGANQQQQQQQITSSPPYSQTLLNSQLFHELTENIILRIDHLQHPETLKLDNTNIVSILESLAAKAFVVYSYAEVKFSQIVPLSTTLKGMANFENRRSMDSNAIAEEQDSDDAEEEDETLKKYKEDCLSTKTFGKGRTLSATSQLSATFNKLPRSEMILLCNEAIVLYMKALSILSKSMQVTSNWWYESQEKSCSLRVNVLVQWLREKFNECLEKADFLRLKINDLRFKHASEVAENQTLEEKGSSEEPVYLEKLLYDRALEISKMAAHMELKGENLYNCELAYATSLWMLETSLDDDDFTNAYGDYPFKTNIHLKSNDVEDKEKYHSVLDENDRIIIRKYIDSIANRLKILRQKMNHQN
partner: B1 chain
B3: Autophagy-related protein 19 (Saccharomyces cerevisiae), P35193 (parent)
chain: B1 chain
partner: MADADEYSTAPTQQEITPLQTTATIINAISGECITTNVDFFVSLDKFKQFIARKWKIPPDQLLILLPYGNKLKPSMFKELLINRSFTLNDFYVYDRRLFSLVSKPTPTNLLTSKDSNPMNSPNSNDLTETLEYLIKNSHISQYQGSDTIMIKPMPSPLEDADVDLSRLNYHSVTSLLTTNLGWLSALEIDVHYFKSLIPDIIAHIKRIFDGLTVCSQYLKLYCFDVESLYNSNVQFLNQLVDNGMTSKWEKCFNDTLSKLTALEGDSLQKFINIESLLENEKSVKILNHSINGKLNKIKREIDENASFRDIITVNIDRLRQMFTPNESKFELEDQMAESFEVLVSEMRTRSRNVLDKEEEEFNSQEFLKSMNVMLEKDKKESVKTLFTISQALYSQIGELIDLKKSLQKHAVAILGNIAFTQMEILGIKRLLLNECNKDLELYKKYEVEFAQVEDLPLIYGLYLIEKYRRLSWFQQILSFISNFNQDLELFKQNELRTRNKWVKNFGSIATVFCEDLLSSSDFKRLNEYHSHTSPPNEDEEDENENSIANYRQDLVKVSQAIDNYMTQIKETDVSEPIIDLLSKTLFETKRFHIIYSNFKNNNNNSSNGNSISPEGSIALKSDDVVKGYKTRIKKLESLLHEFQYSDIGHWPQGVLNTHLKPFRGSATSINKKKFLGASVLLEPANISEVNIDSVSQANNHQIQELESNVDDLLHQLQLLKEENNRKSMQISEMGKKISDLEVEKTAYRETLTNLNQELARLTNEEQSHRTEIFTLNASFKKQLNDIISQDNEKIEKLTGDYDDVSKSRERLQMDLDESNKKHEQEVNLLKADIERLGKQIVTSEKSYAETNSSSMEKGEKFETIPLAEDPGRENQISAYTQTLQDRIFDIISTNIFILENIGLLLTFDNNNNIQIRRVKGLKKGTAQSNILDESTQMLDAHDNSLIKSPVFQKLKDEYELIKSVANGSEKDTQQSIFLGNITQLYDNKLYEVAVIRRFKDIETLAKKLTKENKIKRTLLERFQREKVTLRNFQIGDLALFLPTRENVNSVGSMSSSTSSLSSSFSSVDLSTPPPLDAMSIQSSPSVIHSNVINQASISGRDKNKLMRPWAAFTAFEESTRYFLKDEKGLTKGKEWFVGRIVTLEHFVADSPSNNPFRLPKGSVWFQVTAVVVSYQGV
B4: Autophagy-related protein 19 (Saccharomyces cerevisiae), P35193 (parent)
chain: B1 chain
partner: B2 chain

In the first assay the parent is B1. The following applies: with hrr25_yeast HRR25, P29295.
Regarding MNNSKTNQQMNTSMGYPLTVYDECNKFQLIVPTLDANIMLWCIGQLSLLNDSNGCKHLFWQPNDKSNVRILLNNYDYGHLFKYLQCQRKCSVYIGEGTLKKYNLTISTSFDNFLDLTPSEEKESLCREDAHEDPVSPKAGSEEEISPNSTSNVVVSRECLDNFMKQLLKLEESLNKLELEQKVTNKEPNHRISGTIDIPEDRSELVNFFTELKTVKQLEDVFQRYHDYERLSQECDSKTEIASDHSKKETKIEVEPPNERSLQITMNQRDNSLYFQLFNNTNSVLAGNCKLKFTDAGDKPTTQIIDMGPHEIGIKEYKEYRYFPYALDLEAGSTIEIENQYGEVIFLGKYGSSPMINLRPPSRLSAESLQASQEPFYSFQIDTLPELDDAAIISTAISLSYDGDDNEKALTWEEL [S390A;S391A;S396A], the “effect of a mutation on the interaction” value is given as “disrupting interaction”.

Variants of B2 are the subject of a further assay. The following applies: with atg19_yeast ATG19, P35193.
For D211A, the “effect of a mutation on the interaction” value is listed as “disrupting interaction”.

In the next assay the parent is B3. The following applies: with atg11_yeast ATG11, Q12527.
Take MNNSKTNQQMNTSMGYPLTVYDECNKFQLIVPTLDANIMLWCIGQLSLLNDSNGCKHLFWQPNDKSNVRILLNNYDYGHLFKYLQCQRKCSVYIGEGTLKKYNLTISTSFDNFLDLTPSEEKESLCREDAHEDPVSPKAGSEEEISPNSTSNVVVSRECLDNFMKQLLKLEESLNKLELEQKVTNKEPNHRISGTIDIPEDRSELVNFFTELKTVKQLEDVFQRYHDYERLSQECDSKTEIASDHSKKETKIEVEPPNERSLQITMNQRDNSLYFQLFNNTNSVLAGNCKLKFTDAGDKPTTQIIDMGPHEIGIKEYKEYRYFPYALDLEAGSTIEIENQYGEVIFLGKYGSSPMINLRPPSRLSAESLQASQEPFYSFQIDTLPELDDAAIISTAISLSYDGDDNEKALTWEEL [S390A;S391A;S396A]: the “effect of a mutation on the interaction” value is “disrupting interaction”.

Another assay covers variants of B3. The following applies: with atg11_yeast ATG11, Q12527. This is another data set of the same source.
For MNNSKTNQQMNTSMGYPLTVYDECNKFQLIVPTLDANIMLWCIGQLSLLNDSNGCKHLFWQPNDKSNVRILLNNYDYGHLFKYLQCQRKCSVYIGEGTLKKYNLTISTSFDNFLDLTPSEEKESLCREDAHEDPVSPKAGSEEEISPNSTSNVVVSRECLDNFMKQLLKLEESLNKLELEQKVTNKEPNHRISGTIDIPEDRSELVNFFTELKTVKQLEDVFQRYHDYERLSQECDSKTEIASDHSKKETKIEVEPPNERSLQITMNQRDNSLYFQLFNNTNSVLAGNCKLKFTDAGDKPTTQIIDMGPHEIGIKEYKEYRYFPYALDLEAGSTIEIENQYGEVIFLGKYGSSPMINLRPPSRLSAESLQASQEPFYSFQIDTLPELDDAAIISTAISLSYDGDDNEKALTWEEL [S390A;S391A;S396A], the “effect of a mutation on the interaction” value was “disrupting interaction”.

The variants in the next assay derive from B3. The following applies: with atg11_yeast ATG11, Q12527. The source holds these as a separate data set.
With MNNSKTNQQMNTSMGYPLTVYDECNKFQLIVPTLDANIMLWCIGQLSLLNDSNGCKHLFWQPNDKSNVRILLNNYDYGHLFKYLQCQRKCSVYIGEGTLKKYNLTISTSFDNFLDLTPSEEKESLCREDAHEDPVSPKAGSEEEISPNSTSNVVVSRECLDNFMKQLLKLEESLNKLELEQKVTNKEPNHRISGTIDIPEDRSELVNFFTELKTVKQLEDVFQRYHDYERLSQECDSKTEIASDHSKKETKIEVEPPNERSLQITMNQRDNSLYFQLFNNTNSVLAGNCKLKFTDAGDKPTTQIIDMGPHEIGIKEYKEYRYFPYALDLEAGSTIEIENQYGEVIFLGKYGSSPMINLRPPSRLSAESLQASQEPFYSFQIDTLPELDDDDIISTDISLSYDGDDNEKALTWEEL [S390D;S391D;S396D], the “effect of a mutation on the interaction” value is given as “increasing interaction”.

The next assay covers variants of B4. The following applies: with atg1_yeast ATG1, P53104.
MNNSKTNQQMNTSMGYPLTVYDECNKFQLIVPTLDANIMLWCIGQLSLLNDSNGCKHLFWQPNDKSNVRILLNNYDYGHLFKYLQCQRKCSVYIGEGTLKKYNLTISTSFDNFLDLTPSEEKESLCREDAHEDPVSPKAGSEEEISPNSTSNVVVSRECLDNFMKQLLKLEESLNKLELEQKVTNKEPNHRISGTIDIPEDRSELVNFFTELKTVKQLEDVFQRYHDYERLSQECDSKTEIASDHSKKETKIEVEPPNERSLQITMNQRDNSLYFQLFNNTNSVLAGNCKLKFTDAGDKPTTQIIDMGPHEIGIKEYKEYRYFPYALDLEAGSTIEIENQYGEVIFLGKYGSSPMINLRPPSRLSAESLQASQEPFYSFQIDTLPELDDAAIISTAISLSYDGDDNEKALTWEEL [S390A;S391A;S396A]: the “effect of a mutation on the interaction” value is reported as “disrupting interaction”.

In another assay the parent is B4. The following applies: with atg1_yeast ATG1, P53104. The source holds these as a separate data set.
For MNNSKTNQQMNTSMGYPLTVYDECNKFQLIVPTLDANIMLWCIGQLSLLNDSNGCKHLFWQPNDKSNVRILLNNYDYGHLFKYLQCQRKCSVYIGEGTLKKYNLTISTSFDNFLDLTPSEEKESLCREDAHEDPVSPKAGSEEEISPNSTSNVVVSRECLDNFMKQLLKLEESLNKLELEQKVTNKEPNHRISGTIDIPEDRSELVNFFTELKTVKQLEDVFQRYHDYERLSQECDSKTEIASDHSKKETKIEVEPPNERSLQITMNQRDNSLYFQLFNNTNSVLAGNCKLKFTDAGDKPTTQIIDMGPHEIGIKEYKEYRYFPYALDLEAGSTIEIENQYGEVIFLGKYGSSPMINLRPPSRLSAESLQASQEPFYSFQIDTLPELDDDDIISTDISLSYDGDDNEKALTWEEL [S390D;S391D;S396D], the “effect of a mutation on the interaction” value is given as “disrupting interaction”.

(Values after IntAct's records for PubMed 24968893.)
